The nature of the data set: soluble on expression in E. coli; label from the status in PepcDB or PDB records.
Regarding “MPDEATKGSATIPPSSSTPFWWREKRSPKVQYHRSAYPRSRSSDADCRQGNEGMNFIAKHFFEYQSFMNIPHKAVHLHKVPASQAGTDPSMGWAPKNMLKAGKHQPAPGARANRVHRDPRPNGTKYGRAGKHEHREWGDRHGELRDEKVACHKDAWTKFLANDDQGARTAFECDFEDRVLATEEETLQEKLCRTSPEAMNLNALYAAANKAVSCGGDVCELLTILTYAPTVQFVTTTVKKAKALPYNNAPFARIMLFEGRRLMEQKQTTVNPSLVHKSSVDGSKPSSSSASTSSNDNPSDVSFSESFLFHVPPTKLDRSHIVIELYDHDDEGGLQKIGHCVIGRLVDGTGNAHWIQMVRQHGLPVCMWHKIGHN”, the “soluble on expression in E. coli” value was “not soluble”. For the sequence “MPDSMSEQLRRDMQCEGLLECFHGLKELDKECFRALVEAEEPLTVDELADAVDRERSTAYRAVQRLLQTGFIEKDQINYDQGGYYHVYSPTDPSQIADEMQRMLNDWYAKMGQLIQEFENKYEQSESTAPTVES”, the “soluble on expression in E. coli” value is given as “soluble”.

For “MPEIRLRHVVSCSSQDSTHCAENLLKADTYRKWRAAKAGEKTISVVLQLEKEEQIHSVDIGNDGSAFVEVLVGSSAGGAGEQDYEVLLVTSSFMSPSESRSGSNPNRVRMFGPDKLVRAAAEKRWDRVKIVCSQPYSKDSPFGLSFVRFHSPPDKDEAEAPSQKVTVTKLGQFRVKEEDESANHHHHHH”, the “soluble on expression in E. coli” value is “soluble”. As for “MPELSPLTYGHTDARLILRVGGSMGDVYGQRLLKRDLNGYILNEEGVGLAMENKETYLGSILPKMNMGWSLGFGYKGVNLGMTFTGRFGGIVISETQSVLDAAGVSKVSADVRDAGGVQINQSKVSAQTYYQTIQGTAAYYTYSATNVRLGELSLSYTLPKKWFDNKVGMTVGLVGKNLWMIYCKAPFDPELTTSAASNFYQGFDAYMLPSTRNFGFNVKFQF”, the entry is “not soluble”; as for “MPEPRCTAIVNFLNLSHSILISIFSVSVMSNYHHNHNYQHRPRGYERLPGKRLPDRWNIYDNVGRDIDGTRFVPFKTPLDSSFFDGKNMPVELQFGVKTLISLAQQANKQIGLVIDLTNTDRYYKKTEWADHGVKYLKLNCPGHEVNEREDLVQDFINAVKEFVNDKENDGKLIGVHCTHGLNRTGYLICRYMIDVDNYSASDAISMFEYYRGHPMEREHYKKSLYEAERKKKYGKSSGKSSGNSADSTISSEQLHRNNSQ”, “not soluble”. Next, “MPFSQIGINGIVNLKKMHVKNYRAPQVSVLNFLPPRHIVLGLENLDIGLGSEFTANAVPIVVEGSLVGQITGMTVALTTELLTDVTGKMNAVVRNCSALIGNSHIVLNPTGPMSIFVKTFEPMINDSVRQRIPEMFCSRLQNLIEKNISKLFEFITKIDLEDYFPKASNVEKDVMNM”: “not soluble”; “MPGIDKLPIEETLEDSPQTRSLLGVFEEDATAISNYMNQLYQAMHRIYDAQNELSAATHLTSKLLKEYEKQRFPLGGDDEVMSSTLQQFSKVIDELSSCHAVLSTQLADAMMFPITQFKERDLKEILTLKEVFQIASNDHDAAINRYSRLSKKRENDKVKYEVTEDVYTSRKKQHQTMMHYFCALNTLQYKKKIALLEPLLGYMQAQISFFKMGSENLNEQLEEFLANIGTSVQNVRREMDSDIETMQQTIEDLEVASDPLYVPDPDPTKFPVNRNLTRKAGYLNARNKTGLVSSTWDRQFYFTQGGNLMSQARGDVAGGLAMDIDNCSVMAVDCEDRRYCFQITSFDGKKSSILQAESKKDHEEWICTINNISKQIYLSENPEETAARVNQSALEAVTPSPSFQQRHESLRPAAGQSRPPTARTSSSGSLGSESTNLAALSLDSLVAPDTPIQFDIISPVCEDQPGQAKAFGQGGRRTNPFGESGGSTKSETEDSILHQLFIVRFLGSMEVKSDDHPDVVYETMRQILAARAIHNIFRMTESHLLVTCDCLKLIDPQTQVTRLTFPLPCVVLYATHQENKRLFGFVLRTSSGRSESNLSSVCYIFESNNEGEKICDSVGLAKQIALHAELDRRASEKQKEIERVKEKQQKELNKQKQIEKDLEEQSRLIAASSRPNQASSEGQFVVLSSSQSEESDLGEGGKKRESEA”: “soluble”; “MPHMSEPQRLFFAIDLPAEIREQIIHWRATHFPPEAGRPVAADNLHLTLAFLGEVSAEKEKALSLLAGRIRQPGFTLTLDDAGQWLRSRVVWLGMRQPPRGLIQLANMLRSQAARSGCFQSNRPFHPHITLLRDASEAVTIPPPGFNWSYAVTEFTLYASSFARGRTRYTPLKRWALTQ”: “not soluble”. Next, “MPHPCLSCGACCAYFRVSFHWSEADPALGGNVPIELTEPLRIHERVMHGTSQSHPRCIALDAEIGYRSRCTIHERRPSVCAAVPASLEFGTRSQQCDTSRRAHGLHLLTEADWAGVTNTERNPLPNELEHHHHHH”: “soluble”; “MPIDAMSDRNHAFASDEPPEIQVHPHDRYHAVIKKCASLPPLVTAVVHPVDSQVLSAVSDAVMEKLITPLLVGPAGRIEKAADEAGIDLSKWQVIDTPHSHAAAEKAVELAAAREVGAIMKGSLHTDELLGPIVARGSGLRTGRRLSHAYVMDTAGYHKWLIVTDAVVNISPDLCAKADICRNAVDAWVALTGESCLPKIAVLAAVEVVNAAMQATLDAAALCKMAERGQITGCIIDGPLAFDNAISRQAAKEKHIVSQVAGDADILLAPDIEAGNILAKQLTFISHADAAGVVMGAKVPVILTSRADNLRTRLLSCALAVLVQRAKEEGRIK”: “soluble”; “MPIGNLGHNPNVNNSIPPAPPLPSQTDGAGGRGQLINSTGPLGSRALFTPVRNSMADSGDNRASDVPGLPVNPMRLAASEITLNDGFEVLHDHGPLDTLNRQIGSSVFRVETQEDGKHIAVGQRNGVETSVVLSDQEYARLQSIDPEGKDKFVFTGGRGGAGHAMVTVASDITEARQRILELLEPKGTGESKGAGESKGVGELRESNSGAENTTETQTSTSTSSLRSDPKLWLALGTVATGLIGLAATGIVQALALTPEPDSPTTTDPDAAASATETATRDQLTKEAFQNPDNQKVNIDELGNAIPSGVLKDDVVANIEEQAKAAGEEAKQQAIENNAQAQKKYDEQQAKRQEELKVSSGAGYGLSGALILGGGIGVAVTAALHRKNQPVEQTTTTTTTTTTTSARTVENKPANNTPAQGNVDTPGSEDTMESRRSSMASTSSTFFDTSSIGTVQNPYADVKTSLHDSQVPTSNSNTSVQNMGNTDSVVYSTIQHPPRDTTDNGARLLGNPSAGIQSTYARLALSGGLRHDMGGLTGGSNSAVNTSNNPPAPGSHRFV”: “not soluble”.

As for “MPKASQETKGLGSYDPKSATEKKFVITHRIKNISTLNIGNTYTSDVEDHFGFLWHLSYIYDGRFLRTTLNIDVNGRSALWSVGMKVRHMFVTKNGADHFHNSTDHVFSQEHNYGLTAITFFEDIKNKIFDDDMVYVDVEVTITKTSGFDRKKLRNFDTPENDWHVVLVAGGQKFYARTVVICNPNTDICELDVARGTEIVLENEDPLDLQIFLEALHGEDVISDTTLEIILLLAIKYRAIEIFSKCEKWLLEGSKMSPRKQLQMAIRCSFWELEQKCLSELKTKQDIQAVLPANLMSLDPNMVLTLFEKLLTVT”, the “soluble on expression in E. coli” value was “soluble”. Next, “MPKIAEIEGTPNPNALKFVLKEPLTWGVAKSYDHAEQAVDDPLAAALFDIDHVTNVFYVDRWITITQDGGADWQDLAREVADPIRAAPAATDQSAAVVAAASRTLADLSEEDQQRLERINILLDEEVRPFLQHDGGDLHVLALEGNILRIHYQGACGTCPSSISGTLRGIEQLLRTIEPDIRVVSA”: “not soluble”; “MPKIISKRKFNILRKTKEEIFSQIVYTKKRNGLHKAAKEYYFKDKDFTIIEDQQDRPDKPEELDTPDIPKPPKPPKGPDQPEEPGQPGGPDDPNSGNKKMPKPDEFVTHRQLQEFKKDLLVELHEIFPTKPELKRVEEKVDVLFELQKAQGEQIRIQGEQIKELKVEQKAQGETLQLILQTLQKMNDRLDKIEGKMDKMESRMDKMETRLDKLESK”: “soluble”; “MPKIRIKLRGFDHKTLDASAQKIVEAARRSGAQVSGPIPLPTRVRRFTVIRGPFKHKDSREHFELRTHNRLVDIINPNRKTIEQLMTLDLPTGVEIEIKTVGGGR”: “soluble”. As for “MPKIVILPHQDLCPDGAVLEANSGETILDAALRNGIEIEHACEKSCACTTCHCIVREGFDSLPESSEQEDDMLDKAWGLEPESRLSCQARVTDEDLVVEIPRYTINHAREH”, the “soluble on expression in E. coli” value is “soluble”. In the case of “MPKKFASENPKVTAARDRKATAKKDEADKKAKATEDAKWVDNDKLNNRKMQRKEDDEKKREEALRRKEENRKLAEEEMSSLGNKKPAGAATQKVTRAHIHIRKEDEERINRELEEKRKQEAQKIEVAGDLLVENLNKLEVEEGEARNVDDALKVLGEEKALDDDKHPEKRMRAAYLAFEEARLPELKLNHPTFRLSQLKQILKKEWQKSPENPLNARLLALNS”, the “soluble on expression in E. coli” value is “soluble”.

On to “MPKKPLIDQLHHEDSWRLFRILAEFVEGFETLSELQVPLVSVFGSARFGEGHPAYEAGYRLGRALAEAGFGVVTGGGPGVMEAVNRGAYEAGGVSVGLNIELPHEQKPNPYQTHALSLRYFFVRKVLFVRYAVGFVFLPGGFGTLDELSEVLVLLQTEKVHRFPVFLLDRGYWEGLVRWLAFLRDQKAVGPEDLQLFRLTDEPEEVVQALKAEAPPR”, for which the “soluble on expression in E. coli” value is recorded as “soluble”. Next, “MPKRTDIKSILILGAGPIVIGQACEFDYSGAQACKALREEGYRVILVNSNPATIMTDPEMADATYIEPIHWEVVRKIIEKERPDAVLPTMGGQTALNCALELERQGVLEEFGVTMIGATADAIDKAEDRRRFDVAMKKIGLETARSGIAHTMEEALAVAADVGFPCIIRPSFTMGGSGGGIAYNREEFEEICARGLDLSPTKELLIDESLIGWKEYEMEVVRDKNDNCIIVCSIENFDAMGIHTGDSITVAPAQTLTDKEYQIMRNASMAVLREIGVETGGSNVQFAVNPKNGRLIVIEMNPRVSRSSALASKATGFPIAKVAAKLAVGYTLDELMNDITGGRTPASFEPSIDYVVTKIPRFNFEKFAGANDRLTTQMKSVGEVMAIGRTQQESLQKALRGLEVGATGFDPKVSLDDPEALTKIRRELKDAGADRIWYIADAFRAGLSVDGVFNLTNIDRWFLVQIEELVRLEEKVAEVGITGLNADFLRQLKRKGFADARLAKLAGVREAEIRKLRDQYDLHPVYKRVDTCAAEFATDTAYMYSTYEEECEANPSTDREKIMVLGGGPNRIGQGIEFDYCCVHASLALREDGYETIMVNCNPETVSTDYDTSDRLYFEPVTLEDVLEIVRIEKPKGVIVQYGGQTPLKLARALEAAGVPVIGTSPDAIDRAEDRERFQHAVERLKLKQPANATVTAIEMAVEKAKEIGYPLVVRPSYVLGGRAMEIVYDEADLRRYFQTAVSVSNDAPVLLDHFLDDAVEVDVDAICDGEMVLIGGIMEHIEQAGVHSGDSACSLPAYTLSQEIQDVMRQQVQKLAFELQVRGLMNVQFAVKNNEVYLIEVNPRAARTVPFVSKATGVPLAKVAARVMAGKSLAEQGVTKEVIPPYYSVKEVVLPFNKFPGVDPLLGPEMRSTGEVMGVGRTFAEAFAKAQLGSNSTMKKHGRALLSVREGDKERVVDLAAKLLKQGFELDATHGTAIVLGEAGINPRLVNKVHEGRPHIQDRIKNGEYTYIINTTSGRRAIEDSRVIRRSALQYKVHYDTTLNGGFATAMALNADATEKVISVQEMHAQIK”: “soluble”; “MPKSFYFCKTLERLTLSDKILVDVPCQVSLPSLRELDLFCVVYKDEDSHVKLLSSCPVLKHLKVTRNRRVEDNVRTFRVEVPSLLRLDYKAGMMFREDSDMSDPFLVTDTPNLLSLHIFDTVGYSLSVWYMPHLVTVVTDELFPSEKFMRPLSSVKYLALSPFDTMVPWCDAVNNYSRLVECMIHLSEYDLLESLLVLLSKCSKLKVFLVDSDIPRWNHDPALWNQPSSIPRCLSSHLEIFEWDGYVGREDEKKIIRYILENSKYLKTAGISPNSTFSGEEKQKMEELESMHRTPTSVLLSSARMSFRY”: “not soluble”.

The values above are taken from the DeepSol protein solubility set.
